According to patent US20260258117A1 (ACADEMISCH ZIEKENHUIS LEIDEN H O D N LUMC, published 2026):

Assays:
[1] = molecular target: T1, Complement Factor H protein (human, UniProt P08603 19-1231); test: plate-bound complement activation assay: BSA-DNP coat, bsAb with normal human serum, FH detected
T1 construct: Plasma protein, bought purified or present in normal human serum; also called FH; CFH
Description: BsAbs were functionally tested in plate-bound complement activation assays. To focus on the classical pathway, MaxiSorp plates were coated with 50 μL/well of a mixture of IgG (10 μg/mL, IVIg, Sanquin) or IgM (1 μg/mL, Merck, 401799) and BSA-DNP (10 μg/mL) or biotinylated BSA-DNP (10 μg/mL, biotinylated in-house) in coating buffer for 1 hour at 37° C. After every incubation, plates were washed three times with PBS/0.05% Tween 20. Plates were blocked with 100 μL/well PBS/1% BSA for 1 hour at 37° C. Samples containing 5 μg/mL (or a titration from 0.1 to 10 μg/mL) bsAbs, 10 μg/mL FH or C4BP, and 1% normal human serum (NHS) in RPMI were preincubated for 30 minutes at 4° C. After washing, plates were incubated with 50 μL/well samples for 1 hour at 37° C. Next, FH and C4BP were detected as described above for the bispecificity ELISA (using goat anti-human FH and HRP-labeled rabbit anti-goat Ig, or using rabbit anti-human C4BP and HRP-labeled goat anti-rabbit Ig), and C5b-9 was detected using mouse anti-human C5b-9 (Dako, M0777) and HRP-labeled goat anti-mouse Ig (Dako, P0447), all diluted in PTB buffer. Plates were developed by incubating with 50 μL/well ABTS containing 1:2000 diluted H₂O₂, and read at 415 nm using a microplate reader. […]

[2] = molecular target: T2, C4b-binding protein (human, UniProt P04003 49-597; P20851 18-252); test: plate-bound complement activation assay: BSA-DNP coat, bsAb with normal human serum, C4BP detected
T2 construct: also called C4BP
T2 sequence (looked up) 1: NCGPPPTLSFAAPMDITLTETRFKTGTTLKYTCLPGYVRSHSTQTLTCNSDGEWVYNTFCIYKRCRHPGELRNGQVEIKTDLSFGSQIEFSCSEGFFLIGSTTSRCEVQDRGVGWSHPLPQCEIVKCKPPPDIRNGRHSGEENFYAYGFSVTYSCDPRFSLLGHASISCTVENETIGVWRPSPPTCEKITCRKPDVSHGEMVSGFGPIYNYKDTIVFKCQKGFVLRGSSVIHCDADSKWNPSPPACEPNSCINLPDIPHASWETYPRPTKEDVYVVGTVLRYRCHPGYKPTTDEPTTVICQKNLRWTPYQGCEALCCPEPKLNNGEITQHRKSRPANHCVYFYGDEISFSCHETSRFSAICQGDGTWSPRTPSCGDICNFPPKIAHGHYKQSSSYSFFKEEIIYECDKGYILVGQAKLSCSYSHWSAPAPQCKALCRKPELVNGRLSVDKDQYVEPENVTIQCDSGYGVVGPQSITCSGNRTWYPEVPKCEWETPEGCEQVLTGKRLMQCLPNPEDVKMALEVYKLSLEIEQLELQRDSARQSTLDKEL
T2 sequence (looked up) 2: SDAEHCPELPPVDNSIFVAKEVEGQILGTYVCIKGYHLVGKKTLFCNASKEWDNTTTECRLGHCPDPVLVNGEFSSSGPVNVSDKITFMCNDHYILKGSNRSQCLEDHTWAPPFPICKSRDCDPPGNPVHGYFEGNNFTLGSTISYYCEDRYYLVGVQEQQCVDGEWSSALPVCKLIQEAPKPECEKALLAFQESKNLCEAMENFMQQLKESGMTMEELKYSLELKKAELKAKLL
Description: BsAbs were functionally tested in plate-bound complement activation assays. To focus on the classical pathway, MaxiSorp plates were coated with 50 μL/well of a mixture of IgG (10 μg/mL, IVIg, Sanquin) or IgM (1 μg/mL, Merck, 401799) and BSA-DNP (10 μg/mL) or biotinylated BSA-DNP (10 μg/mL, biotinylated in-house) in coating buffer for 1 hour at 37° C. After every incubation, plates were washed three times with PBS/0.05% Tween 20. Plates were blocked with 100 μL/well PBS/1% BSA for 1 hour at 37° C. Samples containing 5 μg/mL (or a titration from 0.1 to 10 μg/mL) bsAbs, 10 μg/mL FH or C4BP, and 1% normal human serum (NHS) in RPMI were preincubated for 30 minutes at 4° C. After washing, plates were incubated with 50 μL/well samples for 1 hour at 37° C. Next, FH and C4BP were detected as described above for the bispecificity ELISA (using goat anti-human FH and HRP-labeled rabbit anti-goat Ig, or using rabbit anti-human C4BP and HRP-labeled goat anti-rabbit Ig), and C5b-9 was detected using mouse anti-human C5b-9 (Dako, M0777) and HRP-labeled goat anti-mouse Ig (Dako, P0447), all diluted in PTB buffer. Plates were developed by incubating with 50 μL/well ABTS containing 1:2000 diluted H₂O₂, and read at 415 nm using a microplate reader.

T1 sequence (P08603 19-1231 limits assumed): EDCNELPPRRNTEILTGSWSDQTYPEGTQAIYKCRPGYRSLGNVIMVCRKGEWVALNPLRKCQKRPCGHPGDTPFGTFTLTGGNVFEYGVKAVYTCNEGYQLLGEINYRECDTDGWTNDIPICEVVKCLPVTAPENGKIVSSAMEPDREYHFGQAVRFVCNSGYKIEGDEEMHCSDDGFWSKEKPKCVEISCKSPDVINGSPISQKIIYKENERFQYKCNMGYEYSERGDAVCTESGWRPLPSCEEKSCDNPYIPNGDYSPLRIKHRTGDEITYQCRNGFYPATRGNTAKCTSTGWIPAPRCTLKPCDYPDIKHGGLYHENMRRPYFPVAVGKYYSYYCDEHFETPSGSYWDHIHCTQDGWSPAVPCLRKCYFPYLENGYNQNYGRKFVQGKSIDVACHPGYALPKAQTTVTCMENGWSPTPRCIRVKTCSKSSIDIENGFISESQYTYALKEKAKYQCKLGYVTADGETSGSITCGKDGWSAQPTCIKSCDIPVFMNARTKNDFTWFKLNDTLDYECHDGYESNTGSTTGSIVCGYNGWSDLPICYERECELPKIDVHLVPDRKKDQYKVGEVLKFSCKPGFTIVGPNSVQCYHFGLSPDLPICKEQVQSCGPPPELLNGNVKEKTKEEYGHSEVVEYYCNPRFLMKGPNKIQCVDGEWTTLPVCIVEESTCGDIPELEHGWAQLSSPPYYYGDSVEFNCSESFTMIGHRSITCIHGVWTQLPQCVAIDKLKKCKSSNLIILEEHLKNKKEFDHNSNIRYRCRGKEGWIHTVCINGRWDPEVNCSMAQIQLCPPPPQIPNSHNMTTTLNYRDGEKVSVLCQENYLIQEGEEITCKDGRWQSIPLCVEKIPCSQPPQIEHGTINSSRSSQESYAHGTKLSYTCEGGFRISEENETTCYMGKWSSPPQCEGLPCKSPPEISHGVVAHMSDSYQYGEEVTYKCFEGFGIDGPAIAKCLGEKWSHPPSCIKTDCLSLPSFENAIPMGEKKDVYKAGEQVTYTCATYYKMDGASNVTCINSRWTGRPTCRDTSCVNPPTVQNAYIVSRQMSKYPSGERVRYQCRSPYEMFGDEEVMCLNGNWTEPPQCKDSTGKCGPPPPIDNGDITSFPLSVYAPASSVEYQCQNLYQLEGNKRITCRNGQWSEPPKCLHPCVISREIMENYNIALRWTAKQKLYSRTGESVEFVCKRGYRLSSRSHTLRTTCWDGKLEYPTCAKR

B1: Anti-HIV F405L LALAPG, Anti-DNP K409R LALAPG (bispecific antibody, human IgG1, kappa, L234A L235A)
heavy 1: QVQLVQSGAEVKKPGASVKVSCQASGYRFSNFVIHWVRQAPGQRFEWMGWINPYNGNKEFSAKFQDRVTFTADTSANTAYMELRSLRSADTAVYYCARVGPYSWDDSPQDNYYMDVWGKGTTVIVSSASTKGPSVFPLAPSSKSTSGGTAALGCLVKDYFPEPVTVSWNSGALTSGVHTFPAVLQSSGLYSLSSVVTVPSSSLGTQTYICNVNHKPSNTKVDKRVEPKSCDKTHTCPPCPAPEAAGGPSVFLFPPKPKDTLMISRTPEVTCVVVDVSHEDPEVKFNWYVDGVEVHNAKTKPREEQYNSTYRVVSVLTVLHQDWLNGKEYKCKVSNKALGAPIEKTISKAKGQPREPQVYTLPPSREEMTKNQVSLTCLVKGFYPSDIAVEWESNGQPENNYKTTPPVLDSDGSFLLYSKLTVDKSRWQQGNVFSCSVMHEALHNHYTQKSLSLSPGK
light 1: EIVLTQSPGTLSLSPGERATFSCRSSHSIRSRRVAWYQHKPGQAPRLVIHGVSNRASGISDRFSGSGSGTDFTLTITRVEPEDFALYYCQVYGASSYTFGQGTKLERKRTVAAPSVFIFPPSDEQLKSGTASVVCLLNNFYPREAKVQWKVDNALQSGNSQESVTEQDSKDSTYSLSSTLTLSKADYEKHKVYACEVTHQGLSSPVTKSFNRGEC
heavy 2: DVRLQESGPGLVKPSQSLSLTCSVTGYSITNSYYWNWIRQFPGNKLEWMVYIGYDGSNNYNPSLKNRISITRDTSKNQFFLKLNSVTTEDTATYYCARATYYGNYRGFAYWGQGTLVTVSAASTKGPSVFPLAPSSKSTSGGTAALGCLVKDYFPEPVTVSWNSGALTSGVHTFPAVLQSSGLYSLSSVVTVPSSSLGTQTYICNVNHKPSNTKVDKRVEPKSCDKTHTCPPCPAPEAAGGPSVFLFPPKPKDTLMISRTPEVTCVVVDVSHEDPEVKFNWYVDGVEVHNAKTKPREEQYNSTYRVVSVLTVLHQDWLNGKEYKCKVSNKALGAPIEKTISKAKGQPREPQVYTLPPSREEMTKNQVSLTCLVKGFYPSDIAVEWESNGQPENNYKTTPPVLDSDGSFFLYSRLTVDKSRWQQGNVFSCSVMHEALHNHYTQKSLSLSPGK
light 2: DIRMTQTTSSLSASLGDRVTISCRASQDISNYLNWYQQKPDGTVKLLIYYTSRLHSGVPSRFSGSGSGTDYSLTISNLEQEDIATYFCQQGNTLPWTFGGGTKLEIKRTVAAPSVFIFPPSDEQLKSGTASVVCLLNNFYPREAKVQWKVDNALQSGNSQESVTEQDSKDSTYSLSSTLTLSKADYEKHKVYACEVTHQGLSSPVTKSFNRGEC
notes: also called anti-HIV x anti-DNP
binding result [1]: no binding | binding result [2]: no binding
